Laboratory results: US5503978, “Method for identification of high affinity DNA ligands of HIV-1 reverse transcriptase” (University Research Corporation)

Assays:
[1] = biological target: T1, HIV-1 reverse transcriptase (HIV-1, UniProt P04585;P04585 P04585:588-1147,P04585:588-1027); assay: filter; nearly as high as full-length RT1; details: tags: overexpressed in E. coli, purified per Davies et al. 1991
[2] = biological target: T1, HIV-1 reverse transcriptase; assay: filter; HRT buffer, 37 C; details: tags: overexpressed in E. coli, purified per Davies et al. 1991; pseudoknot
[3] = biological target: T1, HIV-1 reverse transcriptase; assay: competition; Kc for displacement of RT1; details: tags: overexpressed in E. coli, purified per Davies et al. 1991; pseudoknot
Protocol: To test this, we measured the ability of the ssDNA ligand RT1 (SEQ ID NO:71) to maintain its specific binding contacts with HIV-1 RT in the presence of high concentrations of RNA pseudoknot (see FIG. 8). […] The percent of RT1 bound in the presence of competitor relative the percent bound in the absence of competitor is plotted as a function of RNA pk concentration. […] As shown graphically in FIG. 14, when a stoichiometric equivalent of RNA pk was added, approximately one half of the complexed RT1 was displaced, and nearly all was displaced when a large excess of RNA was added. […] However, with this assay we are unable to distinguish between an interaction of both ligands at a common site or an interaction of each at different sites, with a conformational change upon binding the first that prevents subsequent binding of the second.

[4] = biological target: T1, HIV-1 reverse transcriptase; assay: inhibition; Ki' for RNA-dependent DNA polymerase activity; details: tags: overexpressed in E. coli, purified per Davies et al. 1991
Excerpt: (§1) A substrate for the RNA-dependent DNA polymerase activity of HIV-1 RT was assembled by annealing an 18 nucleotide, 5' end-labeled DNA primer to a 30 nucleotide RNA template with a complementary 3' end (see FIG. 10), and purifying the duplex on a 12% non-denaturing acrylamide gel. The primer sequence matched the 3' terminal 18 nucleotides of tRNA^{Lys,3}, responsible for priming minus-strand DNA synthesis of the HIV-1 genome, and the template sequence paralleled the HIV-1 genomic primer binding site and downstream 12 nucleotides. A dilution series of inhibitory ssDNA ligand (to give a final concentration of 0, 1, 3, 9, 27, or 81 nM) was denatured in HRT Buffer at 70° C. for 5 minutes and allowed to renature slowly at 20° C. The primer:template substrate was added to a final concentration of 40 nM, along with dNTP's at 400 µM. The 10 µl reaction was initiated with the addition of either HIV-1, AMV, or MMLV-RT (to give a final concentration of 10 nM), allowed to proceed for 5 minutes at 37° C., and terminated with one volume of formamide. Extension products were separated on an 8% denaturing acrylamide gel and quantitated with an Ambis radioanalytic imager.
The ability of each of the 8 isolates to inhibit the RNA-dependent DNA polymerase activity of HIV-1 RT was assayed by measuring the decrease in extension product formation from a primer:template substrate as a function of inhibitor concentration (FIGS. 10A–10E). The substrate for the inhibition assay was a DNA:RNA heteroduplex consisting of an 18 nucleotide end-labeled DNA primer identical in sequence to the 3' end of tRNA^{Lys,3} annealed to a 30 nucleotide RNA template whose sequence matches the genomic primer binding site and the first twelve transcribed nucleotides. Extension reactions were performed as described in Example 1 in the presence of 0, 81, 27, 9, 3, and 1 nM inhibitor as indicated in FIG. 10.

[5] = biological target: T1, HIV-1 reverse transcriptase; assay: inhibition; Ki' for RNA-dependent DNA polymerase activity; 37 C, 40 nM primer:template; details: tags: overexpressed in E. coli, purified per Davies et al. 1991; label: 5'-32P; long interrupted helix with AA/CG internal loop
Excerpt: as §1, with “imager. […]” for “imager.”

[6] = biological target: T1, HIV-1 reverse transcriptase; assay: filter; HRT buffer, 6 mM MgCl2, 37 C; details: tags: overexpressed in E. coli, purified per Davies et al. 1991, label: 5'-32P

Work on ATCCGCCTGAATAGCGATACTCAGAAGGATAAACTGTCCAGAACTTGGA (ssDNA) [RT1t49] yielded a Kd [1] of 4 nM.

Binder GGUCCGAAGUGCAACGGGAAAAUGCACU (ssRNA) [RNA pseudoknot (RNA pk)] has a Kd [2] of 5 nM, a Ki [3] of 3 nM and a Ki ([4]; pseudoknot) of 4.7 nM.

B1: RT1 (ssDNA)
DNA: ATCCGCCTGATTAGCGATACTCAGAAGGATAAACTGTCCAGAACTTGGAATATATCACTTGAGCAAAATCACCTGCAGGGG
Binder B1 has a Ki [5] of 0.3 nM and a Kd ([6]; long interrupted helix with AA/CG internal loop) of roughly 1 nM.

B2: RT6 (ssDNA)
DNA: ATCCGCCTGATTAGCGATACTCAGGCGTTAGGGAAGGGCGTCGAAAGCAGGGTGGGACTTGAGCAAAATCACCTGCAGGGG
B2 showed a Ki ([4]; label: 5'-32P) of 30 nM and a Kd [6] of 5 nM.

B3: RT4 (ssDNA)
DNA: ATCCGCCTGATTAGCGATACTTTAGCAAAGTTGAAGCCGGACTAACAAGCTCTACGACTTGAGCAAAATCACCTGCAGGGG
Work on B3 yielded a Ki ([4]; label: 5'-32P, internal loop AA opposite AG) of 4.1 nM.

B4: RT8 (ssDNA)
DNA: ATCCGCCTGATTAGCGATACTAGCCAGTCAAGTTAATGGGTGCCATGCAGAAGCAACTTGAGCAAAATCACCTGCAGGGG
B4 gave a Ki ([4]; label: 5'-32P, internal loop CAA opposite TAG) of 13 nM.

B5: RT10 (ssDNA)
DNA: ATCCGCCTGATTAGCGATACTTATTTGCCCTTGCAGGCCGCAGGAGTGCTAGCAGTACTTGAGCAAAATCACCTGCAGGGG
In the case of B5, the Ki ([4]; label: 5'-32P, intramolecular primer:template junction (3' AGGGG paired with CCCCT)) is reported as 62 nM.

B6: RT36 (ssDNA)
DNA: ATCCGCCTGATTAGCGATACTAAGCTCTTAGTTGATGCGCGGTCAAAATTTAAGCTACTTGAGCAAAATCACCTGCAGGGG
B6 showed a Ki ([4]; label: 5'-32P, internal loop AA opposite A) of 6.5 nM.

B7: RT26 (ssDNA)
DNA: ATCCGCCTGATTAGCGATACTTACGTGAGCGTGCTGTCCCCTAAAGGTGATACGTCACTTGAGCAAAATCACCTGCAGGGG
Binder B7 has a Ki ([4]; label: 5'-32P, intramolecular primer:template junction, AA/CG internal loop) of 2.7 nM and a Kd ([6]; intramolecular primer:template junction, AA/CG internal loop) of roughly 1 nM.
